A word on the % Inhibition: it is the percentage by which the read-out fell short of the control. A lower % Inhibition goes with a response near the control.

Results on one substance are retold here after US20250197490A1, “ANTI-CORTICOTROPIN-RELEASING HORMONE ANTIBODIES AND USE IN CONGENITAL ADRENAL HYPERPLASIA” (HBM ALPHA THERAPEUTICS, INC., priority 2021, published 2025).

Assay [1] deals with biotinylated CRH (human and mouse). The experiment in a line: Octet in-tandem competition on captured CRH; row = 1st mAb (control hIgG1); competitor (2nd mAb) PR005660. (In general: BLI is a label-free optical method that tracks binding on a fibre tip over time.)
Chain of biotinylated CRH (human and mouse) (P01143 145-185): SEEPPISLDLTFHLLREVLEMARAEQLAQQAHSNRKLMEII
For assay [2] the target is unchanged. The experiment in a line: Octet in-tandem competition on captured CRH; row = 1st mAb (control hIgG1); competitor (2nd mAb) PR006669.
Assay [3] shares this target. The experiment in a line: Octet in-tandem competition on captured CRH; row = 1st mAb (control hIgG1); competitor (2nd mAb) PR301777.
For assay [4] the target is unchanged. Nature of the assay: Octet in-tandem competition on captured CRH; row = 1st mAb (control hIgG1); competitor (2nd mAb) PR302334.
Assay [5] has the same target. The experiment in a line: Octet in-tandem competition on captured CRH; row = 1st mAb (control hIgG1); competitor (2nd mAb) PR303394.
The target is the same in assay [6]. The experiment in a line: Octet in-tandem competition on captured CRH; row = 1st mAb (control hIgG1); competitor (2nd mAb) PR302309-8.
Assay [7] has the same target. Nature of the assay: Octet in-tandem competition on captured CRH; row = 1st mAb (control hIgG1); competitor (2nd mAb) PR302341-34.

For the substance “unrelated human IgG1 (negative control) (antibody)”, the % Inhibition in assay [1] was 12%; in assay [2], 9%; in assay [3], 9%; in assay [4], 8%; in assay [5], 10%; in assay [6] it was 15%. Besides, the % Inhibition in assay [7] is 12%.
